Experiment [1] addresses T1, Recombinant hPD1-His (Sino Biologicals, reference […]-H08H) (human, UniProt Q15116 25-167).
T1 construct: Bought reagent; also called human PD1 recombinant protein; PD-1 recombinant protein; not shown: histidine tail
The experiment can be described thus: ELISA, immobilized recombinant hPD1, purified antibody from HEK cells; given as ED50. The procedure: (§1) Detection was performed with a donkey anti-human antibody coupled to peroxidase and revelation was performed by colorimetry at 450 nm using TMB substrate. […] B: Assessment of antibody binding by cytofluorometry on CD3/CD28 stimulated human PBMCs. […] Data are represented by Mean Fluorescence Intensity (MFI) staining in PD1+ positive CD3+ T cell population. C: Assessment of antibody binding by cytofluorometry on CD3/CD28 stimulated T cells. […] Data are represented by Mean Fluorescence Intensity (MFI) staining in PD1+ positive CD3+ T cell population

The target in experiment [2] is T1, Recombinant hPD1-His (Sino Biologicals, …). The experiment can be described thus: Blitz (BLI), hPD1-His on Ni-NTA biosensor, antibody 20 µg/mL in solution (avidity). The protocol:
The binding affinity/avidity was measured using Blitz method (Forté Bio; USA; reference C22-2 No 61010-1). […] Then, anti-PD1 antibodies were associated with 20 μg/mL for 120 seconds. The dissociation of anti-PD1 antibody was made in kinetics buffer for 120 seconds. Analysis data was made with the Blitz pro 1.2 software, which calculated association constant (ka) and dissociation constant (kd) and determined the affinity constant KD […].

Experiment [3] concerns the target T2, human PD-1 expressed on the cell surface (human, UniProt Q15116 25-288).
T2 construct: whole, on cells; PD-1 on CD3/CD28 stimulated human T cells (flow cytometry), on Promega Jurkat effector cells and on human M1 macrophages (functional assays); also called PD1+ positive CD3+ T cell population; PD-1+ T cells
The experiment can be described thus: flow cytometry on CD3/CD28 stimulated human T cells (PD1+ CD3+); given as ED50. The protocol:
as §1

Experiment [4] addresses chimeric PD-1 receptor fused to Beta-gal fragment (ED) on Jurkat T cells (DiscoverX PathHunter Jurkat PD-1 … (UniProt Q15116 25-288)). The experiment is described as follows: cell-based or functional assay.
For experiment [5], the target named is T3, biotinylated Human PD1 (AcroBiosystems, reference EP-101) (human, UniProt Q15116 25-167, biotinylated).
T3 construct: also called Biotin-PD-1Fc; not shown: Fc part implied by the name 'Biotin-PD-1Fc'
T3 sequence (Q15116 25-167): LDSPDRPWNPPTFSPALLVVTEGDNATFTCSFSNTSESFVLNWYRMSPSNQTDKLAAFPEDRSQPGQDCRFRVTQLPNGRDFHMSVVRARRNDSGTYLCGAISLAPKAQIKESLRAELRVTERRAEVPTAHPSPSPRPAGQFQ
The experiment can be described thus: competition ELISA, immobilized hPDL1 as competitor, biotinylated PD1 0.66 µg/ml mixed with antibody.

The target in experiment [6] is T2, human PD-1 expressed on the cell surface. The experiment can be described thus: cell-based or functional assay.
Experiment [7] shares this target. The experiment is described as follows: Flow cytometry on CD3/CD28 stimulated human PBMCs, PE-labelled mouse anti-human Fc mAb, MFI in the PD1+ CD3+ T cell population. The procedure:
as §1

Experiment [8] addresses T1, Recombinant hPD1-His (Sino Biologicals, …). The experiment is described as follows: Biacore competition with PDL1 for PD1, relative response in % of no Ab.
Experiment [9] shares this target. The experiment is described as follows: ELISA on immobilised recombinant hPD1, DO 450 nm.
For experiment [10] the target is unchanged. The experiment can be described thus: ELISA on immobilised recombinant hPD1, DO 450 nm. The source holds these as a separate data set.
Experiment [11] shares this target. The experiment is described as follows: Biacore SPR, antibody captured on anti-human Fc, hPD1-His as analyte. The procedure:
The affinity measurement was performed by Biacore in PP21 platform (Inserm U1194, Université de Montpellier). Anti-human Fc antibody (GEHealthcare) was immobilized at 25 μg/ml in acetate buffer pH5.

Positions count from the first letter of the chain named. Read-outs that look alike come from different tables or passages of the source.

The values that follow come from US20210355225A1 (OSE IMMUNOTHERAPEUTICS, published 2021).

T2 sequence (Q15116 25-288): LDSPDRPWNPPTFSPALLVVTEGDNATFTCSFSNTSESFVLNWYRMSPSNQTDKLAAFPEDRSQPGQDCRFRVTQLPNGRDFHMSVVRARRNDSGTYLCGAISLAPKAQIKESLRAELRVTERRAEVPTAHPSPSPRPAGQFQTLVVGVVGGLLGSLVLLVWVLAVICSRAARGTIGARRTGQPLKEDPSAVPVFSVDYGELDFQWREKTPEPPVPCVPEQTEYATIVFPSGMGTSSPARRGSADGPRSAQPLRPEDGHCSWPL
chimeric PD-1 receptor fused to Beta-gal fragment (ED) on Jurkat T cells (DiscoverX PathHunter Jurkat PD-1 …, sequence (Q15116 25-288, change not shown): as the sequence (Q15116 25-288) above

B1: HCLD (antibody, human IgG4 S228P, kappa, V domains shown)
VH: QIQLVQSGSELKKPGASVKVSCKASGYTFTHYAMNWVRQAPGQGLEWMGWINTNTGEPTYAQGFTGRFVFSLDTSVSTAYLQISSLKAEDTAVYYCAREREPGMDSWGQGTLVTVSS
VL: DVVMTQSPLSLPVTLGQPASISCRSSQSLVHANTNTYLEWYQQRPGQSPRLLIYKVSNRFSGVPDRFSGSGSGTDFTLKISRVEAEDVGVYYCFQGTHVPNTFGQGTKLEIKR
notes: also called humanized anti-PD1 variant HC heavy chain + LD light chain
With B1, the EC50 in [1] amounted to 0.0127 µg/mL. Moreover, in experiment [2], the Kd came out at 1.34 nM, the koff was determined as 0.000429 s⁻¹ and the kon turned out to be 319000 M⁻¹ s⁻¹. For the same molecule, the EC50 in experiment [3] turned out to be 0.278 nM. In addition, in experiment [4], the “IC50 of PD-1/pSHP-1 signaling, DiscoverX PathHunter Jurkat PD-1 (SHP1) assay, chemiluminescence” value (from here on “IC50 of PD-1/pSHP-1 signaling”) turned out to be 12.7 ng/mL. Further, the IC50 in experiment [5] turned out to be 0.196 µg/mL. The “ED50 of NFAT luciferase luminescence, Promega PD-1/PD-L1 bioassay” value (shortened to “ED50 of NFAT luciferase luminescence”) in experiment [6] came to 0.41 µg/mL.

B2: HELC (antibody, human IgG4 S228P, kappa, V domains shown)
VH: B1 VH with S106T
VL: B1 VL with T34G
notes: also called humanized anti-PD1 variant HE heavy chain + LC light chain
Regarding B2, the “EC50 (read off the curve)” value in experiment [7] is approximately 0.3 µg/mL.

B3: HCLC (antibody, human IgG4 S228P, kappa, V domains shown)
VH: B1 VH
VL: B1 VL with T34G
notes: also called humanized anti-PD1 variant HC heavy chain + LC light chain
For the molecule B3, the binding result in experiment [8] was “binds”.

B4: HILD (antibody, human IgG4 S228P, kappa, V domains shown)
VH: B1 VH with S106A
VL: B1 VL
notes: also called humanized anti-PD1 variant HI heavy chain + LD light chain
As for B4, in experiment [1], the EC50 came to 0.0115 µg/mL. Besides, in experiment [2], the Kd turned out to be 0.93 nM, the off-rate (koff) is 0.000427 s⁻¹ and the kon came to 458000 M⁻¹ s⁻¹. In experiment [3], this molecule registered an EC50 of 0.118 nM. Besides, the “IC50 of PD-1/pSHP-1 signaling” value in experiment [4] is 11.6 ng/mL. In addition, the IC50 in experiment [5] came to 0.175 µg/mL. Also, the “ED50 of NFAT luciferase luminescence” value in [6] stood at 0.4 µg/mL.

B5: HLLD (antibody, human IgG4 S228P, kappa, V domains shown)
VH: B1 VH with S106E
VL: B1 VL
notes: also called humanized anti-PD1 variant HL heavy chain + LD light chain
Consider B5, for which the EC50 in experiment [1] is 0.0166 µg/mL. For the same molecule, in [2], the Kd came out at 1.25 nM, the koff was determined as 0.000554 s⁻¹ and the kon amounted to 441000 M⁻¹ s⁻¹. Besides, in experiment [3], the EC50 is 0.223 nM. In addition, the “IC50 of PD-1/pSHP-1 signaling” value in experiment [4] was 16.6 ng/mL. This molecule registered an IC50 in experiment [5] of 0.156 µg/mL. Moreover, the “ED50 of NFAT luciferase luminescence” value in [6] amounted to 0.89 µg/mL.

B6: HHLD (antibody, human IgG4 S228P, kappa, V domains shown)
VH: B1 VH with S106H
VL: B1 VL
notes: also called humanized anti-PD1 variant HH heavy chain + LD light chain
Take B6: the EC50 in experiment [1] was determined as 0.0164 µg/mL. For the same molecule, in experiment [2], the Kd worked out at 0.84 nM, the koff was determined as 0.000343 s⁻¹ and the kon came to 405000 M⁻¹ s⁻¹. For the same molecule, in [3], the EC50 was determined as 0.133 nM. The “IC50 of PD-1/pSHP-1 signaling” value in experiment [4] was determined as 16.9 ng/mL. For the same molecule, the IC50 in experiment [5] is 0.201 µg/mL. Moreover, the “ED50 of NFAT luciferase luminescence” value in experiment [6] came out at 0.54 µg/mL.

B7: HELD (antibody, human IgG4 S228P, kappa, V domains shown)
VH: B1 VH with S106T
VL: B1 VL
notes: also called humanized anti-PD1 variant HE heavy chain + LD light chain; HELD(V94)
In the case of B7, the EC50 in experiment [1] was 0.0192 µg/mL; in experiment [3], 0.402 nM. Further, the “EC50 (read off the curve)” value was approximately 0.01 µg/mL in experiment [9], approximately 0.3 µg/mL in experiment [7] and approximately 0.009 µg/mL in [10]. Besides, in experiment [2], the Kd stood at 1.14 nM. In experiment [2], the koff turned out to be 0.000507 s⁻¹. Moreover, in [2], the kon came out at 443000 M⁻¹ s⁻¹. Further, the “IC50 of PD-1/pSHP-1 signaling” value in experiment [4] is 19.2 ng/mL. The same molecule registered an IC50 in experiment [5] of 0.196 µg/mL. Further, the “ED50 of NFAT luciferase luminescence” value in experiment [6] was 0.46 µg/mL.

B8: HKLD (antibody, human IgG4 S228P, kappa, V domains shown)
VH: B1 VH with S106N
VL: B1 VL
notes: also called humanized anti-PD1 variant HK heavy chain + LD light chain; humanized anti PD-1 (HKLD variant)
On to B8, for which the EC50 in [1] came out at 0.0114 µg/mL. Further, in experiment [2], the Kd is 0.75 nM, the koff came out at 0.000262 s⁻¹ and the kon is 351000 M⁻¹ s⁻¹. This molecule also registered an EC50 in [3] of 0.187 nM. In [11], the Kd amounted to 4.1 nM, the koff was approximately 0.00133 s⁻¹ and the on-rate constant (kon) came out at 324000 M⁻¹ s⁻¹. In addition, the “IC50 of PD-1/pSHP-1 signaling” value in experiment [4] was determined as 11.4 ng/mL. Also, in experiment [5], the half-maximal inhibitory concentration (IC50) was 0.205 µg/mL. Also, the “ED50 of NFAT luciferase luminescence” value in [6] was found to be 0.69 µg/mL.

B9: HGLD (antibody, human IgG4 S228P, kappa, V domains shown)
VH: B1 VH with D105E
VL: B1 VL
notes: also called humanized anti-PD1 variant HG heavy chain + LD light chain
In the case of B9, the EC50 in [1] was 0.0147 µg/mL. In addition, in [2], the Kd stood at 1.28 nM, the koff amounted to 0.000352 s⁻¹ and the kon is 274000 M⁻¹ s⁻¹. In experiment [3], this molecule yielded an EC50 of 1.54 nM. In [4], the “IC50 of PD-1/pSHP-1 signaling” value turned out to be 14.8 ng/mL. This molecule came in with an IC50 in experiment [5] of 0.178 µg/mL. Besides, the “ED50 of NFAT luciferase luminescence” value in experiment [6] was determined as 1.16 µg/mL.

B10: HJLD (antibody, human IgG4 S228P, kappa, V domains shown)
VH: B1 VH with S106Y
VL: B1 VL
notes: also called humanized anti-PD1 variant HJ heavy chain + LD light chain
For the molecule B10, the EC50 in experiment [1] is 0.0134 µg/mL. In [2], the Kd is 1.05 nM, the koff was found to be 0.000432 s⁻¹ and the kon stood at 410000 M⁻¹ s⁻¹. Moreover, the EC50 in experiment [3] was 0.241 nM. For the same molecule, in experiment [4], the “IC50 of PD-1/pSHP-1 signaling” value came to 13.4 ng/mL. The IC50 in experiment [5] worked out at 0.194 µg/mL. The “ED50 of NFAT luciferase luminescence” value in experiment [6] was found to be 0.9 µg/mL.
